For one test, the system named is Cyno in house BCMA. As to the kind of experiment: ProteOn analysis of CA8 chimeric and humanised constructs, cyno in house BCMA. Format: binding. The note with it: Run 1, Cyno in house BCMA, 25° C.; for ka: in M-1s-1 (unit assumed); for kd: in s-1 (unit assumed).
The next test deals with T1, Human in house BCMA (Homo sapiens, UniProt Q02223).
T1 construct: CD33 signal peptide (N); TEV site (internal); Fc (C); made in house
Kind of test: ProteOn analysis of CA8 chimeric and humanised constructs, human in house BCMA. Format: binding. The note with it: Run 1, Human in house BCMA, ProteOn, 25° C.; for ka: in M-1s-1 (unit assumed); for kd: in s-1 (unit assumed). The method, then: The initial screen of CA8 chimeric and humanised variants was carried out on the ProteOn XPR36 (Biorad). The method was as follows; Protein A was immobilised on a GLC chip (Biorad, Cat No: 176-5011) by primary amine coupling, CA8 variants were then captured on this surface and recombinant human BCMA (in house or commercial US Biological, B0410) materials (run 2 only)) passed over at 256, 64, 16, 4, 1 nM with a 0 nM injection (i.e. buffer alone) used to double reference the binding curves, the buffer used is the HBS-EP buffer. 50 mM NaOH was used to regenerate the capture surface. The data was fitted to the 1:1 model using the analysis software inherent to the ProteOn XPR36. Run 1 corresponds to the first screen of humanised CA8 variants (JO to J5 series) and run 2 to the second screen of humanised CA8 variants (J5 to J9 series). Both runs were carried out at 25° C.

These results are taken from patent US11419945B2, “Antigen binding proteins” (Glaxo Group Limited, priority 2011, dated 2022).

T1 sequence (Q02223 with tags, fused parts or gaps limits assumed): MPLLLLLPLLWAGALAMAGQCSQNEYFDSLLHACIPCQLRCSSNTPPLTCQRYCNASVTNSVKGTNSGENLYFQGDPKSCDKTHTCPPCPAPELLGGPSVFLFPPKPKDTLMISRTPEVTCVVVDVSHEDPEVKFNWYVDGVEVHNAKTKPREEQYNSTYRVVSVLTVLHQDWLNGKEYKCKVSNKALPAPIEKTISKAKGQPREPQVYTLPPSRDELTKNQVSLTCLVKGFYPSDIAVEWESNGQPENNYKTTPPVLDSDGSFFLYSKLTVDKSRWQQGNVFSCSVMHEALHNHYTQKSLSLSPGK
Cyno in house BCMA, sequence (as listed by the source): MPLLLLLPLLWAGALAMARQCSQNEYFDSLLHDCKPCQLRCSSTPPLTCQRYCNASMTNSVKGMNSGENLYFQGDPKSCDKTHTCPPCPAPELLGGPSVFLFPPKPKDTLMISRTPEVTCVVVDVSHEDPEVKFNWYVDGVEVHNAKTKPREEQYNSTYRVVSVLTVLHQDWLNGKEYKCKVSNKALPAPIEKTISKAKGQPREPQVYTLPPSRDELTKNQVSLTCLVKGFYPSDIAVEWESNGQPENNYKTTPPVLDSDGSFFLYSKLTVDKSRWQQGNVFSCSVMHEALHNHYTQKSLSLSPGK

B1: CA8 humanised J0M1: humanised CA8 anti-BCMA antibody, VH J0 (SEQ ID NO:11) + VL M1 (SEQ ID NO:33) (antibody, V domains shown)
VH: QVQLVQSGAEVKKPGSSVKVSCKASGGTFSNYWMHWVRQAPGQGLEWMGATYRGHSDTYYNQKFKGRVTITADKSTSTAYMELSSLRSEDTAVYYCARGAIYNGYDVLDNWGQGTLVTVSS
VL: DIQMTQSPSSLSASVGDRVTITCSASQDISNYLNWYQQKPGKAPKLLIYYTSNLHSGVPSRFSGSGSGTDYTLTISSLQPEDFATYYCQQYRKLPWTFGQGTKLEIKR
modifications: Humansed antibody sequence
In the test on Cyno in house BCMA, B1 showed a ka of 3.32E+05 and a kd of 1.67E−04. Besides, in the test with Human in house BCMA, the ka was found to be 2.31E+05 and the kd turned out to be 8.60E−05.

B2: S307118G03 humanised H2L1: humanised S307118G03, VH H2 (SEQ ID NO:81) + VL L1 (SEQ ID NO:91) (antibody, V domains shown)
VH: QVQLVQSGAEVKKPGSSVKVSCKASGYTFTDYYMKWVRQAPGQGLEWMGEIYPNNGGITYNQKFKGRVTITADKSTSTAYMELSSLRSEDTAVYYCANGYEFVYWGQGTLVTVSS
VL: DIQMTQSPSSLSASVGDRVTITCSASQGISNYLNWYQQKPGKAPKLLIYYTSSLHSGVPSRFSGSGSGTDYTLTISSLQPEDFATYYCQQYSKLPWTFGQGTKLEIKR
modifications: Humansed antibody sequence
Turning to B2, the KD result at Cyno in house BCMA is “No”. In the test with Human in house BCMA, this molecule returned a ka of 3.38E+05 and a kd of 2.15E−03.

B3: S307118G03 humanised H2L0: humanised S307118G03, VH H2 (SEQ ID NO:81) + VL L0 (SEQ ID NO:89) (antibody, V domains shown)
VH: QVQLVQSGAEVKKPGSSVKVSCKASGYTFTDYYMKWVRQAPGQGLEWMGEIYPNNGGITYNQKFKGRVTITADKSTSTAYMELSSLRSEDTAVYYCANGYEFVYWGQGTLVTVSS
VL: DIQMTQSPSSLSASVGDRVTITCSASQGISNYLNWYQQKPGKAPKLLIYYTSSLHSGVPSRFSGSGSGTDFTLTISSLQPEDFATYYCQQYSKLPWTFGQGTKLEIKR
modifications: Humansed antibody sequence
As for B3, the KD result on Cyno in house BCMA was “No”. Further, in the test with Human in house BCMA, the ka was 3.78E+05 and the kd is on record as 2.41E−03.

B4: CA8 humanised J2M2: humanised CA8 anti-BCMA antibody, VH J2 (SEQ ID NO:15) + VL M2 (SEQ ID NO:35) (antibody, V domains shown)
VH: QVQLVQSGAEVKKPGSSVKVSCKASGYTFTNYWMHWVRQAPGQGLEWMGATYRGHSDTYYNQKFKGRVTITADKSTSTAYMELSSLRSEDTAVYYCTRGAIYNGYDVLDNWGQGTLVTVSS
VL: DIQLTQSPSSLSASVGDRVTITCSASQDISNYLNWYQQKPGKAPELVIYYTSNLHSGVPSRFSGSGSGTDYTLTISSLQPEDFATYYCQQYRKLPWTFGQGTKLEIKR
modifications: Humansed antibody sequence
For the molecule B4, the ka is on record as 2.98E+05 in the test with Cyno in house BCMA and 2.05E+05 in the test with Human in house BCMA. For the same molecule, the results for the kd on Cyno in house BCMA and with Human in house BCMA were 3.17E−05 and 9.87E−05, respectively.

B5: S307118G03 humanised H3L1: humanised S307118G03, VH H3 (SEQ ID NO:83) + VL L1 (SEQ ID NO:91) (antibody, V domains shown)
VH: QVQLVQSGAEVKKPGSSVKVSCKASGYTFTDYYMKWVRQAPGQGLEWIGEIYPNNGGITYNQKFKGRATLTVDKSTSTAYMELSSLRSEDTAVYYCANGYEFVYWGQGTLVTVSS
VL: DIQMTQSPSSLSASVGDRVTITCSASQGISNYLNWYQQKPGKAPKLLIYYTSSLHSGVPSRFSGSGSGTDYTLTISSLQPEDFATYYCQQYSKLPWTFGQGTKLEIKR
modifications: Humansed antibody sequence
As for B5, the KD result at Cyno in house BCMA is on record as “No”. In the test with Human in house BCMA, this molecule returned a ka of 4.69E+05 and a kd of 2.28E−03.

B6: CA8 humanised J1M2: humanised CA8 anti-BCMA antibody, VH J1 (SEQ ID NO:13) + VL M2 (SEQ ID NO:35) (antibody, V domains shown)
VH: QVQLVQSGAEVKKPGSSVKVSCKASGYTFTNYWMHWVRQAPGQGLEWMGATYRGHSDTYYNQKFKGRVTITADKSTSTAYMELSSLRSEDTAVYYCARGAIYNGYDVLDNWGQGTLVTVSS
VL: DIQLTQSPSSLSASVGDRVTITCSASQDISNYLNWYQQKPGKAPELVIYYTSNLHSGVPSRFSGSGSGTDYTLTISSLQPEDFATYYCQQYRKLPWTFGQGTKLEIKR
modifications: Humansed antibody sequence
Take B6: in the test on Cyno in house BCMA, the ka was found to be 3.19E+05 and the kd amounted to 9.67E−05. In the test with Human in house BCMA, this molecule returned a ka of 2.15E+05 and a kd of 2.46E−04.

B7: CA8 humanised J2M1: humanised CA8 anti-BCMA antibody, VH J2 (SEQ ID NO:15) + VL M1 (SEQ ID NO:33) (antibody, V domains shown)
VH: QVQLVQSGAEVKKPGSSVKVSCKASGYTFTNYWMHWVRQAPGQGLEWMGATYRGHSDTYYNQKFKGRVTITADKSTSTAYMELSSLRSEDTAVYYCTRGAIYNGYDVLDNWGQGTLVTVSS
VL: DIQMTQSPSSLSASVGDRVTITCSASQDISNYLNWYQQKPGKAPKLLIYYTSNLHSGVPSRFSGSGSGTDYTLTISSLQPEDFATYYCQQYRKLPWTFGQGTKLEIKR
modifications: Humansed antibody sequence
In the test with Cyno in house BCMA, B7 showed a ka of 2.96E+05 and a kd of 6.46E−05. In the test with Human in house BCMA, this molecule displayed a ka of 2.04E+05 and a kd of 1.72E−04.

B8: S307118G03 humanised H4L1: humanised S307118G03, VH H4 (SEQ ID NO:85) + VL L1 (SEQ ID NO:91) (antibody, V domains shown)
VH: QVQLVQSGAEVKKPGSSVKVSCKASGYTFTDYYMKWVRQAPGQGLEWMGEIYPNNGGITYNQKFKGRVTITADKSTSTAYMELSSLRSEDTAVYYCADGYEFVYWGQGTLVTVSS
VL: DIQMTQSPSSLSASVGDRVTITCSASQGISNYLNWYQQKPGKAPKLLIYYTSSLHSGVPSRFSGSGSGTDYTLTISSLQPEDFATYYCQQYSKLPWTFGQGTKLEIKR
modifications: Humansed antibody sequence
For B8, the KD result at Cyno in house BCMA and with Human in house BCMA was “No” each time.

B9: S307118G03 humanised H3L0: humanised S307118G03, VH H3 (SEQ ID NO:83) + VL L0 (SEQ ID NO:89) (antibody, V domains shown)
VH: QVQLVQSGAEVKKPGSSVKVSCKASGYTFTDYYMKWVRQAPGQGLEWIGEIYPNNGGITYNQKFKGRATLTVDKSTSTAYMELSSLRSEDTAVYYCANGYEFVYWGQGTLVTVSS
VL: DIQMTQSPSSLSASVGDRVTITCSASQGISNYLNWYQQKPGKAPKLLIYYTSSLHSGVPSRFSGSGSGTDFTLTISSLQPEDFATYYCQQYSKLPWTFGQGTKLEIKR
modifications: Humansed antibody sequence
As to B9, the KD result at Cyno in house BCMA is given as “No”. In the test with Human in house BCMA, this molecule gave a ka of 2.86E+05 and a kd of 1.52E−03.

B10: CA8 humanised J3M1: humanised CA8 anti-BCMA antibody, VH J3 (SEQ ID NO:17) + VL M1 (SEQ ID NO:33) (antibody, V domains shown)
VH: QVQLVQSGAEVKKPGSSVKVSCKGSGYTFTNYWMHWVRQAPGQGLEWMGATYRGHSDTYYNQKFKGRVTITADTSTSTAYMELSSLRSEDTAVYYCTRGAIYNGYDVLDNWGQGTLVTVSS
VL: DIQMTQSPSSLSASVGDRVTITCSASQDISNYLNWYQQKPGKAPKLLIYYTSNLHSGVPSRFSGSGSGTDYTLTISSLQPEDFATYYCQQYRKLPWTFGQGTKLEIKR
modifications: Humansed antibody sequence
Turning to B10, in the test with Cyno in house BCMA, the ka amounted to 4.04E+05 and the kd is recorded as 7.93E−05. In the test with Human in house BCMA, this molecule registered a ka of 2.85E+05 and a kd of 1.25E−04.

B11: CA8 humanised J1M1: humanised CA8 anti-BCMA antibody, VH J1 (SEQ ID NO:13) + VL M1 (SEQ ID NO:33) (antibody, V domains shown)
VH: QVQLVQSGAEVKKPGSSVKVSCKASGYTFTNYWMHWVRQAPGQGLEWMGATYRGHSDTYYNQKFKGRVTITADKSTSTAYMELSSLRSEDTAVYYCARGAIYNGYDVLDNWGQGTLVTVSS
VL: DIQMTQSPSSLSASVGDRVTITCSASQDISNYLNWYQQKPGKAPKLLIYYTSNLHSGVPSRFSGSGSGTDYTLTISSLQPEDFATYYCQQYRKLPWTFGQGTKLEIKR
modifications: Humansed antibody sequence
B11: the results for the ka in the test with Cyno in house BCMA and with Human in house BCMA were 3.33E+05 and 2.27E+05, respectively. For the same molecule, the kd at Cyno in house BCMA was 1.47E−04; with Human in house BCMA, 3.43E−04.
